In patent US20170101470A1 (PROTHENA BIOSCIENCES, published 2017):
Where a chain is given by its changes, count along the chain named.

How the values were obtained:
Assay in all cases: shotgun mutagenesis, immunodetection on BHK-S cells, 0.25 ug/mL, background-subtracted and normalised to WT, triplicate
[1] = biological target: T1, human MCAM Y167A mutant clone on BHK-S cells (human) (UniProt P43121)
T1 sequence: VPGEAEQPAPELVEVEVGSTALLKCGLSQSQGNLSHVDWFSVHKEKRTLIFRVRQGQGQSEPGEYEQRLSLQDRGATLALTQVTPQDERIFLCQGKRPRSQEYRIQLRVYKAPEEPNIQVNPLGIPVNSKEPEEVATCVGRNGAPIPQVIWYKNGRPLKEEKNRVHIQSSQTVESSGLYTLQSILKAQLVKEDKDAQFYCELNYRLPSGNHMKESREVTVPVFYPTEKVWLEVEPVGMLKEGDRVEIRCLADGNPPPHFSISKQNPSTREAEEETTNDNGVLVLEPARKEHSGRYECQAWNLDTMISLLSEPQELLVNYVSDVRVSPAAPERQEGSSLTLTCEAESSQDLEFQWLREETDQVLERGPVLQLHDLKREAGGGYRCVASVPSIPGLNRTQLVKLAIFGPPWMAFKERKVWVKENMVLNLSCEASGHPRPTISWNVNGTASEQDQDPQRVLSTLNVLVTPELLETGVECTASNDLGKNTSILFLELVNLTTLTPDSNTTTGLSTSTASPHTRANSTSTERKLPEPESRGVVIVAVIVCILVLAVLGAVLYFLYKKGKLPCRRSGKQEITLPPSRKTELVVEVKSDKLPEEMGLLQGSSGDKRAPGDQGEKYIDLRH

[2] = biological target: T2, human MCAM P145A mutant clone on BHK-S cells (human) (UniProt P43121)
T2 sequence: T1 sequence with P122A, A144Y

[3] = biological target: T3, human MCAM L225A mutant clone on BHK-S cells (human) (UniProt P43121)
T3 sequence: T1 sequence with A144Y, L202A

[4] = biological target: T4, human MCAM S238A mutant clone on BHK-S cells (human) (UniProt P43121)
T4 sequence: T1 sequence with A144Y, S215A

B1: rat anti-human MCAM monoclonal antibody clone 2120.4.19 (antibody, V domains shown)
VH: QVQLKESGPGLVQPSQTLSLTCTVSGFSLTSNGVSWVRQPPGKGLEWIAAISSGGTTYYNSAFKSRLSISRNTSKSQVLLKMNSLQTEDTAMYFCARRYGYGWYFDFWGPGTMVTVSS
VL: DIRMTQSPSLLSASVGDRVTLNCKASQNIYNSLAWYQQKLGEGPKVLIPNANSLQTGIPSRFSGSGSGTDFTLTISSLQPEDFATYFCQQFYSGYTFGAGTKLELK
notes: also called m2120
mean reactivity (% of wild type MCAM) [1]: 14.3 % WT
mean reactivity (% of wild type MCAM) [2]: 26.3 % WT
mean reactivity (% of wild type MCAM) [3]: 23.8 % WT
mean reactivity (% of wild type MCAM) [4]: 28.9 % WT
